From US20150320860A1 (published 2015)

How the values were obtained:
[1] = target: T1, Aβ-derived diffusible ligands (ADDLs), soluble oligomers of synthetic Aβ1-42 (UniProt P05067 672-713); experiment: ELISA; IgG2
T1 construct: domain: Aβ1-42; number of copies is not fixed; also called synthetic ADDLs; Aβ oligomers

Aβ1-42 monomer = target: T2, Aβ1-42 monomer (UniProt P05067 672-713); experiment: ELISA; IgG2
T2 construct: domain: Aβ1-42

[2] = target: T1, Aβ-derived diffusible ligands (ADDLs), …; experiment: competitive ELISA
Experimental: The plates were incubated for one and half hours at room temperature. Both detection of residual antibody binding and the EC₅₀ calculations were determined as in the one-sided ELISA assay.

[3] = target: T1, Aβ-derived diffusible ligands (ADDLs), …; experiment: BIACORE (SPR)
Aβ1-40 monomer [4] = target: T3, Aβ1-40 monomer (UniProt P05067 672-711); experiment: BIACORE (SPR)
T3 construct: domain: Aβ1-40; also called Aβ40; monomer Aβ (Aβ1-40)

[5] = target: T1, Aβ-derived diffusible ligands (ADDLs), …; experiment: one-sided ELISA (FIG. 7A)
Experimental: (§1) EC₅₀ represents the half-maximal total Aβ oligomer binding. […] Next day, plates were washed five times with PBS+0.05% TWEEN 20 and blocked overnight with casein blocking buffer (Thermo Scientific, Waltham, Mass.) and 0.05% TWEEN 20. […] After two hours at room temperature incubation, the plates were washed and alkaline phosphatase-conjugated anti-human IgG (ThermoScientific, Waltham, Mass.) was added at 0.08 μg/ml. After incubation for 45 minutes at room temperature, the plates were washed and TROPIX CDP star (Applied Biosystems, Foster City, Calif.) was added. Luminescence was detected after […] on an ENVISION plate reader (PerkinElmer, Waltham, Mass.). Curve fits were completed using GraphPad Prism (GraphPad Software, Inc., San Diego, Calif.) software.

[6] = target: T1, Aβ-derived diffusible ligands (ADDLs), …; experiment: KINEXA, equilibrium constant in solution
Aβ1-40 monomer [7] = target: T3, Aβ1-40 monomer; experiment: KINEXA, equilibrium constant in solution
[8] = target: T1, Aβ-derived diffusible ligands (ADDLs), …; experiment: KINEXA; constant for Aβ1-40 over constant for ADDLs
Aβ1-40 monomer [9] = target: T3, Aβ1-40 monomer; experiment: one-sided ELISA, Aβ1-40 coated at 100 pmol/well (FIG. 7A)
Experimental: as §1

[10] = target: T1, Aβ-derived diffusible ligands (ADDLs), …; experiment: one-sided ELISA, Aβ oligomers coated at 50 pmol/well (FIG. 7A)
Experimental: as §1

[11] = target: T1, Aβ-derived diffusible ligands (ADDLs), …; experiment: BIACORE (SPR); affinity for Aβ1-40 over affinity for ADDLs
[12] = target: T4, biotinylated ADDLs (bADDLs) (UniProt P05067 672-713, N-terminal biotin); experiment: ELISA on coated antigen, chemiluminescence; antibody at 0 timepoint
T4 construct: domain: Aβ1-42; Oligomer mixture; copies not fixed
Experimental: (§2) High protein binding plates (Costar, Corning, Lowell, Mass.), were coated with target ligand in PBS overnight at 4° C. […] One the next day, plates were washed five times with PBS+0.05% TWEEN 20 (Sigma Aldrich, St. Louis, Mo.) and blocked overnight with casein blocking buffer (Thermo Scientific, Waltham, Mass.) and 0.05% TWEEN 20. […] After 2 hours at room temperature incubation, the plates were washed and alkaline phosphatase-conjugated anti-human IgG (ThermoScientific, Waltham, Mass.) was added at 0.08 μg/ml. After 45 minutes at room temperature incubation, the plates were washed and TROPIX CDP-Star chemiluminescent substrate (LIFE TECHNOLOGIES, Carlsbad, Calif.) was added. Luminescence was detected after 30 minutes on an ENVISION microplate reader (PerkinElmer, Waltham, Mass.). Curve fits were completed using […] PRISM software (GraphPad Software, Inc., San Diego, Calif.).

Aβ1-40 monomer [13] = target: T3, Aβ1-40 monomer; experiment: as above
Experimental: as §2

[14] = target: T4, biotinylated ADDLs (bADDLs); experiment: ELISA on coated antigen, chemiluminescence; antibody stored at 4°, 1 month
Experimental: as §2

Aβ1-40 monomer [15] = target: T3, Aβ1-40 monomer; experiment: as above
Experimental: as §2

[16] = target: T4, biotinylated ADDLs (bADDLs); experiment: ELISA on coated antigen, chemiluminescence; antibody stored at 25°, 1 month
Experimental: as §2

Aβ1-40 monomer [17] = target: T3, Aβ1-40 monomer; experiment: as above
Experimental: as §2

[18] = target: T4, biotinylated ADDLs (bADDLs); experiment: ELISA on coated antigen, chemiluminescence; antibody stored at 40°, 1 month
Experimental: as §2

Aβ1-40 monomer [19] = target: T3, Aβ1-40 monomer; experiment: as above
Experimental: as §2

[20] = target: T4, biotinylated ADDLs (bADDLs); experiment: cell-based assay: antibody pre-incubated with 500 nM bADDLs, block of bADDL binding to primary neurons
Experimental: (§3) As a control, the same concentration of heat-denatured antibody (98° C. for […]) was mixed with bADDLs. The antibody-bADDL mixtures were incubated in siliconized microcentrifuge tubes (Fischer Scientific, Pittsburgh, Pa.) at 37° C. for one hour with constant end-to-end rotation at a low speed. The mixtures were then applied to primary hippocampal and/or cortical cultures and incubated at 37° C. for one hour. The incubation was terminated by removing the culture medium. Cells were subjected to fixation and post-fixation treatments. Cells were then incubated with streptavidin conjugated with alkaline phosphate (AP) at 4° C. overnight, washed five times with PBS and reacted with the TROPIX CDP-Star chemiluminescent substrate (Life Technologies, Carlsbad, Calif.) at room temperature for 30 minutes. The bADDL binding intensity was measured and recorded with an ENVISION microplate reader (PerkinElmer, Waltham, Mass.).

[21] = target: T4, biotinylated ADDLs (bADDLs); experiment: cell-based assay: antibody pre-incubated with 500 nM bADDLs in the presence of excess Aβ monomer, block of bADDL binding to primary neurons
Experimental: as §3

[22] = target: T1, Aβ-derived diffusible ligands (ADDLs), …; experiment: three-pronged sandwich ELISA (Aβ forms captured by polyclonal M90/1), single antibody concentration; signal on ADDLs over signal on monomer Aβ
Experimental: (§4) ELISA. […] Monoclonal antibodies diluted in BSA/TBS were incubated for 90 minutes at room temperature and detected with a VECTASTAIN® ABC kit to mouse IgG. The HRP label was visualized with BIO-RAD peroxidase substrate and read at 405 nm on a Dynex MRX-TC microplate reader.

[23] = target: T1, Aβ-derived diffusible ligands (ADDLs), …; experiment: three-pronged sandwich ELISA (Aβ forms captured by polyclonal M90/1), single antibody concentration; signal on ADDLs over signal on fibrillar Aβ
Experimental: as §4

B1: anti-ADDL antibody 19.3 (antibody, V domains shown)
VH: EVQLVESGGGLVQPGGSLRLSCAASGFTFSSFGMHWVRQAPGKGLEWVAYISRGSSTIYYADTVKGRFTISRDNAKNSLYLQMNSLRAEDTAVYYCARGITTALDYWGQGTLVTVSS
VL: DVVMTQSPLSLPVTPGEPASISCRSSQSIVHSNGNTYLEWYLQKPGQSPQLLIYKASNRFSGVPDRFSGSGSGTDFTLKISRVEAEDVGVYYCFQGSRLGPSFGQGTKLEIKR
notes: copies: 2 + 2
With B1 the EC50 [1] was 0.8 nM, the EC50 (Aβ1-42 monomer) was 18 nM and the “fold higher concentration of Aβ1-40 than of Aβ oligomers needed to displace 50% of 19.3” value [2] was ~600 fold. The Kd [3] was 4.8 nM, the Kd (Aβ1-40 monomer [4]) was 150 nM and the “fold greater potency for Aβ oligomers than for Aβ40 monomer” value [5] was ~3.7 fold. For the same binder, the Kd [6] was 2.7 nM, the Kd (Aβ1-40 monomer [7]) was 16.7 nM and the “Ratio (Aβ monomer/ADDL)” value [8] was 6.2. The EC50 (Aβ1-40 monomer [9]) was ~4.3 nM, the EC50 [10] was ~1.7 nM and the “Ratio (Aβ monomer/ADDL)” value [11] was 31. For the same binder, the EC50 [12] was 1.1 nM, the EC50 (Aβ1-40 monomer [13]) was 10.1 nM and the EC50 [14] was 1.7 nM. For the same binder, the EC50 (Aβ1-40 monomer [15]) was 16.3 nM, the EC50 [16] was 2.1 nM and the EC50 (Aβ1-40 monomer [17]) was 22.1 nM. The EC50 [18] was 5.9 nM, the EC50 (Aβ1-40 monomer [19]) was 88.8 nM and the IC50 [20] was 15.4 nM. For the same binder, the IC50 [21] was 15.3 nM, the “ADDL:Monomer binding ratio” value [22] was 2.5 and the “ADDL:Fibrillar binding ratio” value [23] was 2.

B2: antibody 19.3 N33T (antibody, IgG2, V domains shown)
VH: EVQLVESGGGLVQPGGSLRLSCAASGFTFSSFGMHWVRQAPGKGLEWVAYISRGSSTIYYADTVKGRFTISRDNAKNSLYLQMNSLRAEDTAVYYCARGITTALDYWGQGTLVTVSS
VL: DVVMTQSPLSLPVTPGEPASISCRSSQSIVHSTGNTYLEWYLQKPGQSPQLLIYKASNRFSGVPDRFSGSGSGTDFTLKISRVEAEDVGVYYCFQGSRLGPSFGQGTKLEIL
notes: also called 19.3T33
B2 gave an EC50 [1] of 3.1 nM, an EC50 (Aβ1-42 monomer) of 244 nM and an EC50 [12] of 15.5 nM. For the same binder, the EC50 (Aβ1-40 monomer [13]) was 332 nM, the EC50 [14] was 11.6 nM and the EC50 (Aβ1-40 monomer [15]) was 307 nM. The EC50 [16] was 15.7 nM, the EC50 [18] was 23.5 nM and the EC50 (Aβ1-40 monomer [19]) was 96.3 nM.

B3: antibody 19.3 N33S (antibody, IgG2, V domains shown)
VH: EVQLVESGGGLVQPGGSLRLSCAASGFTFSSFGMHWVRQAPGKGLEWVAYISRGSSTIYYADTVKGRFTISRDNAKNSLYLQMNSLRAEDTAVYYCARGITTALDYWGQGTLVTVSS
VL: DVVMTQSPLSLPVTPGEPASISCRSSQSIVHSSGNTYLEWYLQKPGQSPQLLIYKASNRFSGVPDRFSGSGSGTDFTLKISRVEAEDVGVYYCFQGSRLGPSFGQGTKLEIL
notes: also called 19.3S33
In the case of B3, the EC50 [1] is reported as 1.7 nM, the EC50 (Aβ1-42 monomer) is reported as 150 nM and the EC50 [12] is reported as 7.8 nM. For the same binder, the EC50 (Aβ1-40 monomer [13]) was 55.1 nM, the EC50 [14] was 8.6 nM and the EC50 (Aβ1-40 monomer [15]) was 59.1 nM. The EC50 [16] was 12.8 nM, the EC50 (Aβ1-40 monomer [17]) was 24.3 nM and the EC50 [18] was 10.1 nM. For the same binder, the EC50 (Aβ1-40 monomer [19]) was 29.9 nM.

B4: humanized anti-ADDL antibody h3B3 (antibody, V domains shown)
VH: EVQLVESGGGLVQPGGSLRLSCAASGFTFSSFGMHWVRQAPGKGLEWVAYISRGSSTIYYADTVKGRFTISRDNAKNSLYLQMNSLRAEDTAVYYCARGITTALDYWGQGTLVTVSS
VL: DVVMTQSPLSLPVTPGEPASISCRSSQSIVHSNGNTYLEWYLQKPGQSPQLLIYKASNRFSGVPDRFSGSGSGTDFTLKISRVEAEDVGVYYCFQGSHVPPTFGQGTKLEIK
notes: Parental humanized antibody; also called humanized 3B3; h3B3 (parental)
B4 was tested, and the Kd (Aβ1-40 monomer [4]) was 105 nM and the Kd (Aβ1-40 monomer [7]) was 45 nM.

B5: antibody 19.3 N33D (antibody, V domains shown)
VH: EVQLVESGGGLVQPGGSLRLSCAASGFTFSSFGMHWVRQAPGKGLEWVAYISRGSSTIYYADTVKGRFTISRDNAKNSLYLQMNSLRAEDTAVYYCARGITTALDYWGQGTLVTVSS
VL: DVVMTQSPLSLPVTPGEPASISCRSSQSIVHSDGNTYLEWYLQKPGQSPQLLIYKASNRFSGVPDRFSGSGSGTDFTLKISRVEAEDVGVYYCFQGSRLGPSFGQGTKLEIL
notes: Made as a control
Work on B5 yielded an EC50 [1] of 0.82 nM and an EC50 (Aβ1-42 monomer) of 28 nM.
